Measurements reported in paper PMC3991615, “The N-Terminal Domain of the Repressor of Staphylococcus aureus Phage Φ11 Possesses an Unusual Dimerization Ability and DNA Binding Affinity”.
Blank lines part the entries; values can stand above or below the molecule they belong to.

Assays:
[1] = target: T1, rCI (phage phi11 CI lysogenic repressor) (Staphylococcus aureus phage phi11) (UniProt Q8SDX2); experiment: EMSA; conditions: EMSA with ~0.1 nM 32P-DNA, 20 min on ice (0°C) unless 42°C; RNAP assay and protein storage in buffer C (10 mM Tris-HCl pH 8.0, 200 mM NaCl, 1 mM EDTA, 5% …)
T1 sequence: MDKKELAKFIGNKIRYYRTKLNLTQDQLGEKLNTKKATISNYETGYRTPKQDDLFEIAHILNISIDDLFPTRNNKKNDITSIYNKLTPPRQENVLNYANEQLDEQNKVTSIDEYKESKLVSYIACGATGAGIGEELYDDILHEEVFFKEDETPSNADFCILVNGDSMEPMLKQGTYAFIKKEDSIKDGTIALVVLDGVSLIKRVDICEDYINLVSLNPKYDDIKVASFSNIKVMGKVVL

[2] = target: T2, rNTD (N-terminal domain of phage phi11 CI repressor) (Staphylococcus aureus phage phi11) (UniProt Q8SDX2); experiment: EMSA; conditions: EMSA with ~0.1 nM 32P-DNA, 20 min on ice (0°C) unless 42°C; RNAP assay and protein storage in buffer C (10 mM Tris-HCl pH 8.0, 200 mM NaCl, 1 mM EDTA, 5% …)
T2 sequence: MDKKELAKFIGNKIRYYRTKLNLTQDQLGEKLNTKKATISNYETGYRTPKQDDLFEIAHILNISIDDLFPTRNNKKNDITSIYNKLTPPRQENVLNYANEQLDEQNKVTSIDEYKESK

[3] = target: T2, rNTD (N-terminal domain of phage phi11 CI repressor) (Staphylococcus aureus phage phi11); experiment: DMS footprinting; conditions: EMSA with ~0.1 nM 32P-DNA, 20 min on ice (0°C) unless 42°C; RNAP assay and protein storage in buffer C (10 mM Tris-HCl pH 8.0, 200 mM NaCl, 1 mM EDTA, 5% …)
[4] = target: recombinant N-terminal domain (NTD) of the Φ11 lysogenic repressor CI (Staphylococcus aureus phage Φ11); experiment: cross-linking; glutaraldehyde (0.1%), 1-5 µM protein, products analysed by 13.5% SDS-PAGE
[5] = target: recombinant N-terminal domain (NTD) of the Φ11 lysogenic repressor CI (Staphylococcus aureus phage Φ11); experiment: SEC; analytical gel filtration, 10 µM protein in buffer C (10 mM Tris-HCl pH 8.0, 200 mM NaCl, 1 mM EDTA, 5% glycerol) with 10 mM β-mercaptoethanol; calibrated with conalbumin, ovalbumin, carbonic anhydrase, cytochrome C
[6] = target: Φ11 CI with a C-terminal histidine tag (Staphylococcus aureus phage Φ11); experiment: cross-linking; glutaraldehyde (0.1%), 1-5 µM protein, products analysed by 13.5% SDS-PAGE
[7] = target: Φ11 CI with a C-terminal histidine tag (Staphylococcus aureus phage Φ11); experiment: SEC; analytical gel filtration, 10 µM protein in buffer C (10 mM Tris-HCl pH 8.0, 200 mM NaCl, 1 mM EDTA, 5% glycerol) with 10 mM β-mercaptoethanol; calibrated with conalbumin, ovalbumin, carbonic anhydrase, cytochrome C
[8] = target: T3, rNTD (N-terminal domain of phage phi11 CI repressor) (Staphylococcus aureus phage phi11, UniProt Q8SDX2 1-118); experiment: EMSA; 0°C (on ice); EMSA with ~0.1 nM 32P-DNA, 20 min on ice (0°C) unless 42°C; RNAP assay and protein storage in buffer C (10 mM Tris-HCl pH 8.0, 200 mM NaCl, 1 mM EDTA, 5% glycerol); standard EMSA buffer not printed (per refs 7, 8); native PAGE 6% or 10%; conditions: protein: recombinant, tags: C-terminal His6 (8 additional residues), chain copies: 2, label: 32P
T3 sequence: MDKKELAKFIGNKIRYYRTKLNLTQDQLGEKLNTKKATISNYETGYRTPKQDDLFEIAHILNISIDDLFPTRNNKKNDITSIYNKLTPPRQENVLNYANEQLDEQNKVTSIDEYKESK

[9] = target: T4, rCI (phage phi11 CI lysogenic repressor) (Staphylococcus aureus phage phi11, UniProt Q8SDX2 1-239); experiment: as above; conditions: protein: recombinant; tags: C-terminal His tag; chain copies: 2; label: 32P; 3' overhang 1 nt (both ends)
T4 sequence: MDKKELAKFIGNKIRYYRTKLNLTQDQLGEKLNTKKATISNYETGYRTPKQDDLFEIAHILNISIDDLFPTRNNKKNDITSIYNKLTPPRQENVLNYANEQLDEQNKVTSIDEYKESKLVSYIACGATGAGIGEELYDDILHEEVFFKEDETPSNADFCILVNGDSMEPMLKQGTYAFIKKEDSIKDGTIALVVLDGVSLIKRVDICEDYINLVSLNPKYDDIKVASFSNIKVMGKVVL

Molecule: ATTCAACAAAAAAATACACGAAAAGCAAACTTTTATGTTGACTCAAGTACACGTATCGTGTATAGTAGGTTTTGTAAGCGGGAGGTGACAACATGCAATGGAATTTAATAAAGTTGAGAAAAGAAAGAAAGTGTACTCAAGAAGATTTAGGATCC (double strand) [O1O2]
binding [1]: binds | binding [2]: binds

Molecule: CTCGAGCATTTTAACTACGTTTGCAGCTTGCTCGCCACGGTCGCCTTCAACGATGTCGAATTCAACTTTTTGGCCTTCTTCTAATGATTTGTATCCATCTTCAGCGATTGCTGAGAAGTGTACGAATACGTCGCTACCATCTTCTCTTTCGATGAAACCAAAACCTTTTTCTGCATTAAACCATTTAACTGTACCGTTATTCATCCATGGCATG (double strand) [cspC]
binding [2]: no binding

Molecule: GGATCCTAAATCTTCTTGAGTACACTTTCTTTCTTTTCTCAACTTTATTAAATTCCATTGCATGTTGTCACCTCCCGCTTACAAAACCTACTATACACGATACGTGTACTTGAGTCAACATAAAAGTTTGCTTTTCGTGTATTTTTTTGTTGAATACCAAAAATAATTGGGTTATACTATAGGTAAATTTAAGGAGGTAAGAAAATGGATAAAAAAGAATTAGCGAAATTTATAGGCAATAAAATCAGATACTATAGAACCAAGAATTC (double strand) [O]
binding [2]: binds | binding [3]: binds

stoichiometry N [4]: 2 | stoichiometry N [5]: 2
Molecule: recombinant N-terminal domain (NTD) of the Φ11 lysogenic repressor CI (domain or fragment)

stoichiometry N [6]: 2 | stoichiometry N [7]: 2
Molecule: Φ11 CI with a C-terminal histidine tag (natural protein)

B1: O2 (dsDNA)
DNA 1: ATTCAACAAAAAAATACACGAAAAGCAAACTTTTATGTTGACTCAAGTA
DNA 2: TACTTGAGTCAACATAAAAGTTTGCTTTTCGTGTATTTTTTTGTTGAAT
Kd ([8]; blunt): 7.83 ± 0.44 nM

B2: O1 (dsDNA)
DNA 1: GACTCAAGTACACGTATCGTGTATAGTAGGTTTA
DNA 2: AAACCTACTATACACGATACGTGTACTTGAGTCA
Kd ([8]; 3' overhang 1 nt (both ends)): 3.13 ± 0.51 nM | Kd [9]: 3.17 ± 0.75 nM
